These are literature values, as cited in US7208138B2, “Contrast enhancement agent for magnetic resonance imaging” (Duke University, priority 2001, dated 2007).

One data set deals with T1, fXIIIa (Homo sapiens, UniProt P00488).
T1 sequence (P00488 39-732 limits assumed): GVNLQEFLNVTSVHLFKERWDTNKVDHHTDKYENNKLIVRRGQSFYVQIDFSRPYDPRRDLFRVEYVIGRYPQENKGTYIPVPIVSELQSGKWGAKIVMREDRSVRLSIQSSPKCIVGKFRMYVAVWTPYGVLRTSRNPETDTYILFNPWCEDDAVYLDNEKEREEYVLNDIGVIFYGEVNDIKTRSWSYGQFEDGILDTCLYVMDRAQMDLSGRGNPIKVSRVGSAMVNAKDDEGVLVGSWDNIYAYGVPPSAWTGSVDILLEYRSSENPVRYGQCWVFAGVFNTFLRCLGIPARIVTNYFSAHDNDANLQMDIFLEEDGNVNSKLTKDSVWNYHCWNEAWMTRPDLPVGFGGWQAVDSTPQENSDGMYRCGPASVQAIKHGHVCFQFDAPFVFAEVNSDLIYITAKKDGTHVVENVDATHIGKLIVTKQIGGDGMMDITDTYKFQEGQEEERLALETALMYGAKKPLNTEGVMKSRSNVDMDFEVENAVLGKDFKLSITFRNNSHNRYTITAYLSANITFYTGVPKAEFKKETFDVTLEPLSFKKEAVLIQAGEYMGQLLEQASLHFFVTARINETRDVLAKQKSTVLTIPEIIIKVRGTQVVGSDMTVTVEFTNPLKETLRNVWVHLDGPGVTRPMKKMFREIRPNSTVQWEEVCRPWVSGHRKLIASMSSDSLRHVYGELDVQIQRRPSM

A further data set deals with T2, TG (Homo sapiens, UniProt P21980).
T2 sequence (P21980 1-687): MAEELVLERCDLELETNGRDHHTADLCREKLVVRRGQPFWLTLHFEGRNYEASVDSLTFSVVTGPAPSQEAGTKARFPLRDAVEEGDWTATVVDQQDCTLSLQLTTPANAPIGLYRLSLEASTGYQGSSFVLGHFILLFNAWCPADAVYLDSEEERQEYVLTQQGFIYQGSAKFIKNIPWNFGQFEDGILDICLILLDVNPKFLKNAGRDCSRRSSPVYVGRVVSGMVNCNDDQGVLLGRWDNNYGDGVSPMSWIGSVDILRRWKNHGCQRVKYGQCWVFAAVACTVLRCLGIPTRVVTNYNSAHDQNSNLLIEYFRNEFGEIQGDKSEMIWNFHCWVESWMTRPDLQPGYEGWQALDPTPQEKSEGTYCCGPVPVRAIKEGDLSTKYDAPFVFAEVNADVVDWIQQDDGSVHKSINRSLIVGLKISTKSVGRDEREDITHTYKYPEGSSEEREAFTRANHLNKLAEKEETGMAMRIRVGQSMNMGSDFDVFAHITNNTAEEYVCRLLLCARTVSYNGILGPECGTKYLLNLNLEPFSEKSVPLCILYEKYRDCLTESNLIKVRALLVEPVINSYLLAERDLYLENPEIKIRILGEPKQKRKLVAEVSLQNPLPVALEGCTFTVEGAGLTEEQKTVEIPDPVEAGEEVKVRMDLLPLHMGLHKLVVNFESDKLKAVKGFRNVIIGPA

The conditions of data set [1]: time to clearance of one half from the bloodstream.
For data set [2] the following is noted: fraction of the relaxivity of free gadolinium ion.

As for “SEQ ID NO: 2: peptide of amino acid sequence NQEQVSP, the TG and fXIIIa crosslinking motif (listed as Homo sapiens)”, in the data set with fXIIIa, the “fXIIIa crosslinking / recognition” value is on record as “recognized”. Besides, the “TG crosslinking / recognition” value with TG was “recognized”.

With `O=C([O-])CN(CCN(CC(=O)[O-])CC(=O)[O-])CCN(CC(=O)[O-])CC(=O)[O-].[Gd+3]` [Gd-DTPA], the “cleared from the bloodstream (½)” value in data set [1] was 20 min. Further, the “relaxivity of the complex relative to free gadolinium ion” value in data set [2] was “about one-half”.

In the case of “SEQ ID NO: 3: peptide NGEQVSP, glycine at position 2; control peptide in crosslinking assays (listed as Homo sapiens)”, the “fXIIIa crosslinking / recognition” value with fXIIIa was “inert”. In the data set with TG, the “TG crosslinking / recognition” value is recorded as “inert”.
